Consider 26 molecules from patent US20150344570A1 (published 2015).

B1: GpH7-B3 variant E269_19Q/GpL16-k0 (antibody, human IgG1, kappa)
heavy: not shown
light: DIVMTQSPLSLPVTPGEPASISCQASESLVHSNRNTYLHWYLQKPGQSPQLLIYKVSNRFSGVPDRFSGSGSGTDFTLKISRVEAEDVGVYYCSQNTHVPPTFGQGTKVEIERTVAAPSVFIFPPSDEQLKSGTASVVCLLNNFYPREAKVQWKVDNALQSGNSQESVTEQDSKDSTYSLSSTLTLSKADYEKHKVYACEVTHQGLSSPVTKSFNRGEC
notes: also called Ho Ab E269_19Q
B2: GpH7-B3 variant E269_03V/GpL16-k0 (antibody, human IgG1, kappa)
heavy: not shown
light: B1 light
notes: also called Ho Ab E269_03V
B3: GpH7-B3 variant A330_09D/GpL16-k0 (antibody, human IgG1, kappa)
heavy: not shown
light: B1 light
notes: also called Ho Ab A330_09D
B4: GpH7-B3 variant A330_11K/GpL16-k0 (antibody, human IgG1, kappa)
heavy: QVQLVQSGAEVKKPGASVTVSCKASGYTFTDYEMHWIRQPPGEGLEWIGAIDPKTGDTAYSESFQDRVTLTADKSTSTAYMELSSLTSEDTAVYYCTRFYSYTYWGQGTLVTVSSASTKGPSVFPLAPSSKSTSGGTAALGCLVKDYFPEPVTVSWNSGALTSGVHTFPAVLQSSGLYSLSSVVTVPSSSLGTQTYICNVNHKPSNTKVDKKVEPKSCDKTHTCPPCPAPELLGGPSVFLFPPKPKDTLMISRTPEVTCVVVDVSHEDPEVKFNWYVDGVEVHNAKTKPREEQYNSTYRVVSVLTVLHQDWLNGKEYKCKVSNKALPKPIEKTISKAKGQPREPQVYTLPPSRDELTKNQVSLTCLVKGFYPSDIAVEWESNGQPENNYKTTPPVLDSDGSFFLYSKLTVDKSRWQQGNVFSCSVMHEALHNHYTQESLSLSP
light: B1 light
notes: also called Ho Ab A330_11K
B5: GpH7-B3 variant E269_04F/GpL16-k0 (antibody, human IgG1, kappa)
heavy: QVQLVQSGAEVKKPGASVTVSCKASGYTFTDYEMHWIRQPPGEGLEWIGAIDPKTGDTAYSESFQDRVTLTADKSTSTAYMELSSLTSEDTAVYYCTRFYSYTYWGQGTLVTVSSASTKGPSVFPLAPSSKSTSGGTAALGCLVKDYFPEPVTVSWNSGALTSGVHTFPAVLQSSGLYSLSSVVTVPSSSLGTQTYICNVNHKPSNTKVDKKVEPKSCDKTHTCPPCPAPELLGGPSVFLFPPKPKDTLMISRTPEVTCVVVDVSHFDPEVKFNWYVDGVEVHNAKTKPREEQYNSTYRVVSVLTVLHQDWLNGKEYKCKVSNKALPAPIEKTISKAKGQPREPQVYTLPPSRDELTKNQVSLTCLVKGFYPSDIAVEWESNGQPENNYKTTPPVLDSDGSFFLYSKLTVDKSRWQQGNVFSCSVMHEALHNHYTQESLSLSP
light: B1 light
notes: also called Ho Ab E269_04F
B6: GpH7-B3 variant E269_09D/GpL16-k0 (antibody, human IgG1, kappa)
heavy: not shown
light: B1 light
notes: also called Ho Ab E269_09D
B7: GpH7-B3 variant A330_08L/GpL16-k0 (antibody, human IgG1, kappa)
heavy: not shown
light: B1 light
notes: also called Ho Ab A330_08L
B8: GpH7-B3 variant A330_16H/GpL16-k0 (antibody, human IgG1, kappa)
heavy: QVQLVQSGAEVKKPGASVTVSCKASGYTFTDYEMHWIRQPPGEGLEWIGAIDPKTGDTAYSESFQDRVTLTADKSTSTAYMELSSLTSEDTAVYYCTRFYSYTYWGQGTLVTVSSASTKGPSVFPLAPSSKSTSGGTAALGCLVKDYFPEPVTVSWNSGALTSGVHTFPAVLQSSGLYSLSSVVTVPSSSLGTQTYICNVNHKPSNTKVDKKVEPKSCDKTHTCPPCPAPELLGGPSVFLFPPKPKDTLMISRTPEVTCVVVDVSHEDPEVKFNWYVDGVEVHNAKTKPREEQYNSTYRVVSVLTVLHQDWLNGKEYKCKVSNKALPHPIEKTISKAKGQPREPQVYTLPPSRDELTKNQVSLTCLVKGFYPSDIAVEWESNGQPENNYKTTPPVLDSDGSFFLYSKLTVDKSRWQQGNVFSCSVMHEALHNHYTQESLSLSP
light: B1 light
notes: also called Ho Ab A330_16H
B9: GpH7-B3 variant A330_14T/GpL16-k0 (antibody, human IgG1, kappa)
heavy: not shown
light: B1 light
notes: also called Ho Ab A330_14T
B10: GpH7-B3 variant E269_06M/GpL16-k0 (antibody, human IgG1, kappa)
heavy: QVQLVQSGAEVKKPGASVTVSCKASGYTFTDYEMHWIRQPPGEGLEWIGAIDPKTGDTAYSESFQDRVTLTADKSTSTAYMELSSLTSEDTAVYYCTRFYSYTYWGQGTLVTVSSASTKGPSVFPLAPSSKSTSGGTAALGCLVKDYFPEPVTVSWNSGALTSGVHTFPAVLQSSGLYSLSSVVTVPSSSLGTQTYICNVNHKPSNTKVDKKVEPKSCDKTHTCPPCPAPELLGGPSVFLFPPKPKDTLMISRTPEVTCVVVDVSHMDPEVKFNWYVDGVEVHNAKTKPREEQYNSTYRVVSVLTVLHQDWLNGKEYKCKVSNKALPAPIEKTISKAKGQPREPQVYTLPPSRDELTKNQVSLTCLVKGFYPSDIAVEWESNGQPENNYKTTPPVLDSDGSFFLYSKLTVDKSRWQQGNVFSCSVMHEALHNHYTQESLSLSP
light: B1 light
notes: also called Ho Ab E269_06M
B11: GpH7-B3 variant A327_03V/GpL16-k0 (antibody, human IgG1, kappa)
heavy: not shown
light: B1 light
notes: also called Ho Ab A327_03V
B12: GpH7-B3 variant E269_08L/GpL16-k0 (antibody, human IgG1, kappa)
heavy: not shown
light: B1 light
notes: also called Ho Ab E269_08L
B13: GpH7-B3 variant E333_01G/GpL16-k0 (antibody, human IgG1, kappa)
heavy: not shown
light: B1 light
notes: also called Ho Ab E333_01G
B14: GpH7-B3 variant E269_18N/GpL16-k0 (antibody, human IgG1, kappa)
heavy: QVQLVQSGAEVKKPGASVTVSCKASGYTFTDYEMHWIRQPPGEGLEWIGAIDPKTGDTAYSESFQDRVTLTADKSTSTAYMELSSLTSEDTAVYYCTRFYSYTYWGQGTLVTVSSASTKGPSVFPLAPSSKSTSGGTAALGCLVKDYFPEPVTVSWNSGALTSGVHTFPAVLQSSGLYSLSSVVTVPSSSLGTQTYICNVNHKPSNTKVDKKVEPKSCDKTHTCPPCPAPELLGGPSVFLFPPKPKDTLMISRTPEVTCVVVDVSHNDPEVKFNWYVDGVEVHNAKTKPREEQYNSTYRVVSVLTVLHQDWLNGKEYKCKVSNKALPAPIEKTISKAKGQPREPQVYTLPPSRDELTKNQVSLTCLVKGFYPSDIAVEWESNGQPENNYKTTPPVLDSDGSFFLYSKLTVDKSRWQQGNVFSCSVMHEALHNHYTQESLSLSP
light: B1 light
notes: also called Ho Ab E269_18N
B15: GpH7-B3 variant A327_09D/GpL16-k0 (antibody, human IgG1, kappa)
heavy: not shown
light: B1 light
notes: also called Ho Ab A327_09D
B16: GpH7-B3 variant E269_13S/GpL16-k0 (antibody, human IgG1, kappa)
heavy: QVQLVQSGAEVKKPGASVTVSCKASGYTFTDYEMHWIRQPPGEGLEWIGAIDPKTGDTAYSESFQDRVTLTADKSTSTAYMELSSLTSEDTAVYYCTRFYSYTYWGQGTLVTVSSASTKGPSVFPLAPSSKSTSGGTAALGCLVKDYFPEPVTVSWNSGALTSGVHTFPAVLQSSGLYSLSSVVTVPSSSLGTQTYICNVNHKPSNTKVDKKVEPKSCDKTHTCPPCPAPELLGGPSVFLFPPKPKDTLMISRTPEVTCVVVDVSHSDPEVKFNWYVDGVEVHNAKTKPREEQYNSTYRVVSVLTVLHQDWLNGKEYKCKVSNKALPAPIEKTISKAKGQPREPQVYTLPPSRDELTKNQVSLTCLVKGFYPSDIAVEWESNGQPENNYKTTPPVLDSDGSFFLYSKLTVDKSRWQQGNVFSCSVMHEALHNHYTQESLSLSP
light: B1 light
notes: also called Ho Ab E269_13S
B17: GpH7-B3 variant E269_15Y/GpL16-k0 (antibody, human IgG1, kappa)
heavy: not shown
light: B1 light
notes: also called Ho Ab E269_15Y
B18: GpH7-B3 variant E333_02A/GpL16-k0 (antibody, human IgG1, kappa)
heavy: not shown
light: B1 light
notes: also called Ho Ab E333_02A
B19: GpH7-B3 variant E269_07I/GpL16-k0 (antibody, human IgG1, kappa)
heavy: not shown
light: B1 light
notes: also called Ho Ab E269_07I
B20: GpH7-B3 variant A330_05P/GpL16-k0 (antibody, human IgG1, kappa)
heavy: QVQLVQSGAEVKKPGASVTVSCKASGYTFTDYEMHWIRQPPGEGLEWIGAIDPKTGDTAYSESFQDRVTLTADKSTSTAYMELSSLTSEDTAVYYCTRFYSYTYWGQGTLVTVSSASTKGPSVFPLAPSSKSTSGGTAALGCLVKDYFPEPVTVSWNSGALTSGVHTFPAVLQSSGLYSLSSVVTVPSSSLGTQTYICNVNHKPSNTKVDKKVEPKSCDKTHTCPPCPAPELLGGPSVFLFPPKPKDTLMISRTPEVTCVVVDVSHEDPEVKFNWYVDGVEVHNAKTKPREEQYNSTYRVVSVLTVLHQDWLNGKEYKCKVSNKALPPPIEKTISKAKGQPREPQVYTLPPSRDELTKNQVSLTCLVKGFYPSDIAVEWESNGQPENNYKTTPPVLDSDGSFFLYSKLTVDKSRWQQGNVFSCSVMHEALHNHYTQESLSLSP
light: B1 light
notes: also called Ho Ab A330_05P
B21: GpH7-B3 variant E269_05P/GpL16-k0 (antibody, human IgG1, kappa)
heavy: not shown
light: B1 light
notes: also called Ho Ab E269_05P
B22: GpH7-B3 variant A327_10E/GpL16-k0 (antibody, human IgG1, kappa)
heavy: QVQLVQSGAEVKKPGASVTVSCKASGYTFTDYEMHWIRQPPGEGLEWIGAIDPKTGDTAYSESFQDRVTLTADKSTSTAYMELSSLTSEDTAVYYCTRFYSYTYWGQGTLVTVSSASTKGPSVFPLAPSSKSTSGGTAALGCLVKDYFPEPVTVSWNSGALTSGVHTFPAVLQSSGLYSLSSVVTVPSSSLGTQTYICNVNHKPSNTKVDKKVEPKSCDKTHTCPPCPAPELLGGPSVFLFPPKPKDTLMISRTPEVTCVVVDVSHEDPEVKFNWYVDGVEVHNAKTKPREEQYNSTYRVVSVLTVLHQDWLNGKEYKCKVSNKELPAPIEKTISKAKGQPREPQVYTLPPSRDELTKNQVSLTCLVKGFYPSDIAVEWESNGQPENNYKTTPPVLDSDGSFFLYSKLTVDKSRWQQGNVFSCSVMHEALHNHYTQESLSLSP
light: B1 light
notes: also called Ho Ab A327_10E
B23: GpH7-B3 variant E269_16H/GpL16-k0 (antibody, human IgG1, kappa)
heavy: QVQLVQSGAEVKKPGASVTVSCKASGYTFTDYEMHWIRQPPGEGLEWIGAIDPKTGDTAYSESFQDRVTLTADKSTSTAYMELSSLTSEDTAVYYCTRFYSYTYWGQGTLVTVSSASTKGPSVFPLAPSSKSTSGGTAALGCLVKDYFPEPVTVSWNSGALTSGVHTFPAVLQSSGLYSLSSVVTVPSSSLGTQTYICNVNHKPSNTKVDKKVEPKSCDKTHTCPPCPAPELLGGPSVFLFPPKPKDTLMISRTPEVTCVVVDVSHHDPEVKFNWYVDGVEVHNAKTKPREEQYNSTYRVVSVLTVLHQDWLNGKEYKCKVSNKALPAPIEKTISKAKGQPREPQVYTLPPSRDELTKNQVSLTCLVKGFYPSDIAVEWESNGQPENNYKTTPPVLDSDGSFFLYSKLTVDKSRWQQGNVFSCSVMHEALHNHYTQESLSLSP
light: B1 light
notes: also called Ho Ab E269_16H
B24: GpH7-B3 variant A327_13S/GpL16-k0 (antibody, human IgG1, kappa)
heavy: not shown
light: B1 light
notes: also called Ho Ab A327_13S
B25: GpH7-B3 variant E269_14T/GpL16-k0 (antibody, human IgG1, kappa)
heavy: not shown
light: B1 light
notes: also called Ho Ab E269_14T
B26: GpH7-B3 variant A327_06M/GpL16-k0 (antibody, human IgG1, kappa)
heavy: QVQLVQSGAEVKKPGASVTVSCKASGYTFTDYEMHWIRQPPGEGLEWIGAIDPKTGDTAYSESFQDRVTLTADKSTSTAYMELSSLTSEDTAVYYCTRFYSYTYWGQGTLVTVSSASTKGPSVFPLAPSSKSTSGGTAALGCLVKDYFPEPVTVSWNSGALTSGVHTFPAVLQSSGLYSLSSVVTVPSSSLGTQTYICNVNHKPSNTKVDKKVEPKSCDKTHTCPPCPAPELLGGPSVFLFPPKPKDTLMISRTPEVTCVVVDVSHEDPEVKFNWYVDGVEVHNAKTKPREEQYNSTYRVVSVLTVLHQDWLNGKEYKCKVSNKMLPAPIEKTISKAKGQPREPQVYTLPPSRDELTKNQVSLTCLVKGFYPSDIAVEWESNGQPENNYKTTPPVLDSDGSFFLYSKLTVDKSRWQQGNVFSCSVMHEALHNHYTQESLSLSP
light: B1 light
notes: also called Ho Ab A327_06M

This assay deals with T1, FcγRIa (human, UniProt P12314 16-292).
T1 construct: extracellular domain; also called FcgRI; 1a
T1 sequence (P12314 16-292): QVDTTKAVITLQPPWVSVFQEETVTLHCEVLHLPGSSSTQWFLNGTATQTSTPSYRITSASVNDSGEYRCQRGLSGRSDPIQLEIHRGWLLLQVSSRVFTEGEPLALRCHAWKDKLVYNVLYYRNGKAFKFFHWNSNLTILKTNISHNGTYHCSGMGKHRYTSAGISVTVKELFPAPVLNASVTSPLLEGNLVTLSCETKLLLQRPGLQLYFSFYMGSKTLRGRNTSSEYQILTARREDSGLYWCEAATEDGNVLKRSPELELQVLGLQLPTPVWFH
Put plainly: SPR (Biacore); Ho Ab relative to HoCon Ab = 100. As to the method: Analysis of interaction between objective antibody and the FcγR was carried out using Biacore T100 (GE Healthcare). HBS-EP+ (GE Healthcare) was used as the running buffer, and the measurement temperature was set to 25° C. Chips produced by immobilizing the antigen peptide by the amine coupling method to a Series S Sencor Chip CM5 (GE Healthcare), or alternatively, chips produced by allowing preliminarily biotinylated antigen peptides to interact with and immobilize onto a Series S Sensor Chip SA (certified) (GE Healthcare) were used. Antibodies of interest were captured onto an antigen peptide-immobilized chip, and allowed to interact to each FcγR diluted with running buffer. To regenerate and repeatedly use the chip, the antibodies captured on the chip were washed off by reacting 10 mM glycine-HCl, pH 1.5.
For orientation: SPR reads the build-up and loss of mass on a sensor chip optically.
Regarding B1, the Ho/Con_1a is 99.6 % of control.

Turning to B2, the Ho/Con_1a was 95.4 % of control.

B3: the Ho/Con_1a is 108 % of control.

On to B4, for which the Ho/Con_1a is 94.1 % of control.

With B5, the Ho/Con_1a was 102 % of control.

With B6, the Ho/Con_1a is 106 % of control.

Consider B7, for which the Ho/Con_1a was 106 % of control.

As for B8, the Ho/Con_1a was 104 % of control.

Turning to B9, the Ho/Con_1a was 105 % of control.

As for B10, the Ho/Con_1a is 101 % of control.

On to B11, for which the Ho/Con_1a is 94.4 % of control.

In the case of B12, the Ho/Con_1a was 101 % of control.

As for B13, the Ho/Con_1a was 100 % of control.

Turning to B14, the Ho/Con_1a was 92.7 % of control.

As to B15, the Ho/Con_1a was 102 % of control.

As to B16, the Ho/Con_1a was 95.9 % of control.

For B17, the Ho/Con_1a was 100 % of control.

Turning to B18, the Ho/Con_1a was 96.2 % of control.

In the case of B19, the Ho/Con_1a was 97.1 % of control.

Regarding B20, the Ho/Con_1a was 84.4 % of control.

For B21, the Ho/Con_1a was 95.7 % of control.

For the molecule B22, the Ho/Con_1a was 98.8 % of control.

As to B23, the Ho/Con_1a was 98.4 % of control.

Turning to B24, the Ho/Con_1a is 86.1 % of control.

Take B25: the Ho/Con_1a is 96.2 % of control.

Consider B26, for which the Ho/Con_1a is 93.1 % of control.
